Experimental data taken from patent US20210317225A1 (Genmab, published 2021).
Substitutions are numbered along the chain they refer to. One block for each binder: values may come before it.

Legend:
[1] = target: T1, Human CD137 shuffle 3 (amino acids 115-138 replaced by wild boar CD137) (human, amino acids 115-138 from wild …, UniProt Q07011 24-255); test: flow cytometry on transfected HEK293T-17 cells
T1 construct: also called shuffle construct 3
T1 chain: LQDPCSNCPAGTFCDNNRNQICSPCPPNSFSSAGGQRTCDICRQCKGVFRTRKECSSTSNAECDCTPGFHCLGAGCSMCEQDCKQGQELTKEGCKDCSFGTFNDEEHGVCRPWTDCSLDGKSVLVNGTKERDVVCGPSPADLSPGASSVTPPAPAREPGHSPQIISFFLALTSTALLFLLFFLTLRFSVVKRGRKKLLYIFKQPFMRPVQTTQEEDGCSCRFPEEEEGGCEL
Procedure: (§1) 3×10⁶ HEK293T-17 cells were seeded in T75 culture flasks (Greiner Bio-One, cat. no. 658175) in 20 mL RPMI 1640 GlutaMAX medium containing 10% FCS (Biochrom, cat. no. S 0115). After O/N incubation, cells were transiently […] with expression vectors encoding the shuffle constructs or the wild boar, African elephant or human CD137 downstream of a constitutively active human elongation factor-1 alpha (EF-1 alpha) promotor using TransIT®-LT1 Transfection Reagent, Mirus Bio (VWR International, cat. no. 731-0029), according to the manufacturer's instructions. The next day, cells were harvested using 1.5 mL Accutase (Sigma Aldrich, cat. no. A6964) (incubation at 37° C. for 5 min.) and flow cytometry was performed, essentially as described in Example 4, to measure surface expression of the shuffle constructs and the human, African elephant and wild boar CD137 and to measure binding of the antibody clones to the different shuffle constructs. To measure cell surface expression of the constructs, transduced cells were incubated with 1 μg/mL goat polyclonal anti-human CD137 (R&D Systems, cat. no. AF838) in FACS buffer (D-PBS supplemented with 5 mM EDTA [Sigma Aldrich, cat. no. 03690] and 5% (v/v) fetal bovine serum [FBS, Biochrom, cat. no. S 0115]) (4° C., 20 min.), followed by incubation with APC-labeled anti-goat IgG (H+L) (R&D Systems, cat. no. F0108) (4° C., 20 min.). Binding of the different CD137 antibody clones to cells expressing the shuffle constructs was measured by incubation of the transduced cells with 1 μg/mL of the antibody clones, followed by APC-labeled AffiniPure F(ab′)2 Fragment (1:50 final dilution; Jackson, cat. no. 109-136-127).

[2] = target: T2, Human CD137 shuffle 4 (amino acids 89-114 replaced by wild boar CD137) (human, amino acids 89-114 from wild boar, UniProt Q07011 24-255); test: flow cytometry on transfected HEK293T-17 cells
T2 construct: also called shuffle construct 4
T2 chain: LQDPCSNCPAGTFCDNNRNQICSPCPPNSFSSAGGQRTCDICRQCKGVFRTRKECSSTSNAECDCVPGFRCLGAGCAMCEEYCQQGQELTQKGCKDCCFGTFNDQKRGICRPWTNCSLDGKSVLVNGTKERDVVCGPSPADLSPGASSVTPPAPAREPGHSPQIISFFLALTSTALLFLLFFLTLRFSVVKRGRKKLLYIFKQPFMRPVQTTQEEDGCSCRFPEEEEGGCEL
Procedure: as §1

[3] = target: T3, Human CD137 shuffle 1 (amino acids 162-186 replaced by wild boar CD137) (human, amino acids 162-186 from wild …, UniProt Q07011 24-255); test: flow cytometry on transfected HEK293T-17 cells, 1 µg/mL antibody
T3 construct: also called shuffle construct 1
T3 chain: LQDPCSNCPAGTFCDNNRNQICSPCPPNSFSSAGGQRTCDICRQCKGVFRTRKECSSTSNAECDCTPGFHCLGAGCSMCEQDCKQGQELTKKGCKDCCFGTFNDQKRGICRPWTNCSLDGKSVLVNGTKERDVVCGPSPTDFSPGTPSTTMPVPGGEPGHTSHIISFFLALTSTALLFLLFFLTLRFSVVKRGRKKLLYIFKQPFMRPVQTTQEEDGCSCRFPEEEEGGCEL
Procedure: as §1

[4] = target: T4, Human CD137 shuffle 2 (amino acids 139-161 replaced by wild boar CD137) (human, amino acids 139-161 from wild …, UniProt Q07011 24-255); test: as above
T4 construct: also called shuffle construct 2
T4 chain: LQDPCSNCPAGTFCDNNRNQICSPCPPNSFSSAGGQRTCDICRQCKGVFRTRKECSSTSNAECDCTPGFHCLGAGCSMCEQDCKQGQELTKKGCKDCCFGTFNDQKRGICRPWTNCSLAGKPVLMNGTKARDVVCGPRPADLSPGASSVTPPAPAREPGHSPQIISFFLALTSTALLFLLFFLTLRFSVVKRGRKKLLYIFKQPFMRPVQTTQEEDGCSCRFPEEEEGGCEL
Procedure: as §1

[5] = target: T5, Human CD137 shuffle 5 (amino acids 48-88 replaced by African elephant CD137) (human, amino acids 48-88 from African …, UniProt Q07011 24-255); test: as above
T5 construct: also called shuffle construct 5
T5 chain: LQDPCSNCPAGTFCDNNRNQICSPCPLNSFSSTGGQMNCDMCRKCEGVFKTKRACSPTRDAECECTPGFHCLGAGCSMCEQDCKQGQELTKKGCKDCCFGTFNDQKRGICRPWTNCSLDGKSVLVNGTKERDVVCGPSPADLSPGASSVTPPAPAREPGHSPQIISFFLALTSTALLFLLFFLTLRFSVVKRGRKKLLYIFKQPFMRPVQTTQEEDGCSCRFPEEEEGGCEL
Procedure: as §1

[6] = target: T6, Human CD137 (TNR9_Human) (human, UniProt Q07011 24-255); test: flow cytometry, HEK293-T17 cells transiently transfected with human CD137, antibody at 1 µg/mL, APC-labeled F(ab')2 secondary [cont.]
T6 construct: Full-length human CD137 expressed on HEK293T-17, NF-kB/293/GFP-Luc or K562 cells, or native on T cells; also called hCD137 wt; 4-1BB
Procedure: (§2) FIG. 4: Binding of CD137 antibody clones to CD137 shuffle constructs expressed on HEK293-T17 cells. HEK293-T17 cells were transfected with the CD137 shuffle constructs, and with human CD137 (hCD137 wt), African elephant of wild boar CD137, as indicated. Binding of the different CD137 antibody clones to these constructs expressed on HEK293-T17 cells was measured by flow cytometry. Staining with polyclonal anti-CD137 antibody is shown as a control.
as §1

[7] = target: T5, Human CD137 shuffle 5 (amino acids …); test: flow cytometry on transfected HEK293T-17 cells
Procedure: as §1

[8] = target: T1, Human CD137 shuffle 3 (amino acids …); test: flow cytometry on transfected HEK293T-17 cells, 1 µg/mL antibody
Procedure: as §1

[9] = target: T2, Human CD137 shuffle 4 (amino acids …); test: as above
Procedure: as §1

[10] = target: T6, Human CD137 (TNR9_Human); test: flow cytometry, HEK293-T17 cells transiently transfected with human CD137, antibody at 1 µg/mL, APC-labeled F(ab')2 secondary
Procedure: as §2, §1

B1: CD137 antibody clone 011 (rabbit) (antibody, human IgG1, kappa, V domains shown)
VH: QSLEESGGRLVTPGTPLTLTCTVSGIDLSSYHMCWVRQAPGKGLEYIGYIAYGGNTYYANWAKGRFTISKTSTTVDLRITSPTTEDTATYFCARGYSEDSYWGLWGPGTLVTVSS
VL: AYDMTQTPASVEAAVGGTVTIKCQASQNIENYLAWYQQKPGQPPKLLIYDTSKLTSGVPSRFSGSGSGTDFTLTISGVQSDDAATYYCQQDYGIIFVDNIFGGGTEVVVKR
notes: also called Clone 11; CD137 clone 011
- binding result [1]: no binding (tested: 1 µg/mL)
- binding result [2]: no binding (tested: 1 µg/mL)
- binding result [3]: binds
- binding result [4]: binds
- binding result [5]: binds
- binding result [6]: binds

B2: CD137 antibody clone 009 (rabbit) (antibody, human IgG1, kappa, V domains shown)
VH: QSLEESGGRLVTPGTPLTLTCTVSGFSLNDYWMSWVRQAPGKGLEWIGYIDVGGSLYYASWAKGRFTISRTSTTVDLKMTSLTTEDTATYFCARGGLTYGFDLWGPGTLVTVSS
VL: DIVMTQTPASVSEPVGGTVTINCQASEDISSYLAWYQQKPGQRPKRLIYGASDLASGVPSRFSASGSGTEYALTISDLESADAATYYCHYYATISGLGVAFGGGTEVVVKR
notes: also called Clone 9; CD137 clone 009
- binding result [7]: no binding (tested: 1 µg/mL)
- binding result [3]: binds
- binding result [4]: binds
- binding result [8]: binds
- binding result [9]: binds
- binding result [6]: binds

B3: CD137 antibody clone 010 (rabbit) (antibody, human IgG1, kappa, V domains shown)
VH: QSVEESGGRLVTPGTPLTLTCTVSGFSLSTYAMIWVRQAPGKGLEWIGVVYDNGYISHATWVKGRFTISKTSTTVGLEITSPTTEDTATYFCARSADGSWSTYFNLWGQGTLVTVSS
VL: DIVMTQTPASVEAAVGGTVTIKCQASESISNYLAWYQQKPGQPPKLLIYKASTLASGVSSRFKGSGSGTEFTLTISDLESADAATYYCQTNYCCSSSDNGFAFGGGTEVVVKR
notes: also called Clone 10; CD137 clone 010
- binding result [7]: no binding (tested: 1 µg/mL)
- binding result [3]: binds
- binding result [4]: binds
- binding result [8]: binds
- binding result [9]: binds
- binding result [6]: binds

B4: CD137 antibody clone 002 (rabbit) (antibody, human IgG1, kappa, V domains shown)
VH: QSVEESGGRLVTPGTPLTLTCTVSGFSLTYYAVTWVRQPPGKGLEWIGVIYDNGATAFATWAKGRFTMSKNSTTVALKVTSPTTEDTATYFCARSANNAWSTYSNLWGQGTLVTVSS
VL: DIVMTQTPSSVSAAVGGTVTINCQASEDISSYLSWYQQKLGQPPKLLIYKASTLESGVPSRFKGSGSGTEYTLTISDLESDDAATYYCQSYYSGSISGYGFVFGGGTGVVVKR
notes: also called Clone 2; CD137 clone 002
- binding result [7]: no binding (tested: 1 µg/mL)
- binding result [3]: binds
- binding result [4]: binds
- binding result [8]: binds
- binding result [9]: binds
- binding result [10]: binds

Next, values leading:

- binding result [1]: no binding (tested: 1 µg/mL)
- binding result [2]: no binding (tested: 1 µg/mL)
- binding result [3]: binds
- binding result [4]: binds
- binding result [5]: binds
- binding result [10]: binds
B5: CD137 antibody clone 004 (rabbit) (antibody, human IgG1, kappa, V domains shown)
VH: QSLEESGGRLVTPGTPLTLTCTASGFSLSRYDMSWVRQAPGKGLEYIGVISSSGGTNYANWAKGRFTISKTSTTVDLKITSPTTEDTATYFCAREGDYWDFNLWGPGTLVTVSS
VL: AQVLTQTPSSVSAAVGGTVTINCQASQSISNLLAWYQQKPGQPPKLLIYGASTLASGVPSRFSGSGSGTEFTLTISDLESDDAATYYCAGGFPGLDTVAAFGGGTEAVVTR
notes: also called Clone 4; CD137 clone 004

- binding result [2]: no binding (tested: 1 µg/mL)
- binding result [3]: binds
- binding result [4]: binds
- binding result [8]: binds
- binding result [5]: binds
- binding result [6]: binds
B6: CD137 antibody clone 008 (rabbit) (antibody, human IgG1, kappa, V domains shown)
VH: B5 VH with R30S, V49Y, G55N, N57Y, N60S, G64S
VL: B5 VL with P43R, K45R, G50R, S63K, D81E, V98G, A100T
notes: also called Clone 8; CD137 clone 008

- binding result [7]: no binding (tested: 1 µg/mL)
- binding result [3]: binds
- binding result [4]: binds
- binding result [8]: binds
- binding result [9]: binds
- binding result [10]: binds
B7: CD137 antibody clone 006 (rabbit) (antibody, human IgG1, kappa, V domains shown)
VH: QSVEESGGRLVTPGTPLTLTCTVSGFSLSSYAMSWVRQAPGKGLEWIGIISTSGITYYASWAKGRFTISKTSTMVDLKITSPTTEDTATYFCARLNGFDDYVRYFDFWGLGTLVTVSS
VL: AIELTQTPSSVSAAVGGTVTINCQASESIASNLAWYQQKPGQPPKLLIYAASYLASGVPSRFKGSGSGTEYTLTISGVQSADAATYYCQSAFYVSSSDNAFGGGTEVVVKR
notes: also called Clone 6; CD137 clone 006
